From article PMC11022716 come the findings set out here.

The term Kd denotes the equilibrium constant for the complex coming apart.

To fix the notation:
B1: mouse FcγRII (receptor)
chain: THDLPKAVVKLEPPWIQVLKEDTVTLTCEGTHNPGNSSTQWFHNGRSIRSQVQASYTFKATVNDSGEYRCQMEQTRLSDPVDLGVISDWLLLQTPQLVFLEGETITLRCHSWRNKLLNRISFFHNEKSVRYHHYSSNFSIPKANHSHSGDYYCKGSLGRTLHQSKPVTITVQGPKSSRSLP
B2: mouse FcγRIII (receptor)
chain: ALPKAVVKLDPPWIQVLKEDMVTLMCEGTHNPGNSSTQWFHNGRSIRSQVQASYTFKATVNDSGEYRCQMEQTRLSDPVDLGVISDWLLLQTPQRVFLEGETITLRCHSWRNKLLNRISFFHNEKSVRYHHYKSNFSIPKANHSHSGDYYCKGSLGSTQHQSKPVTITVQDPATTSSISLVWYHT
B3: mouse FcγRIV (receptor)
chain: GLQKAVVNLDPKWVRVLEEDSVTLRCQGTFSPEDNSIKWFHNESLIPHQDANYVIQSARVKDSGMYRCQTALSTISDPVQLEVHMGWLLLQTTKWLFQEGDPIHLRCHSWQNRPVRKVTYLQNGKGKKYFHENSELLIPKATHNDSGSYFCRGLIGHNNKSSASFRISLGDPGSPSMFPPWHQ
B4: mouse FcγRI (receptor)
chain: EVVNATKAVITLQPPWVSIFQKENVTLWCEGPHLPGDSSTQWFINGTAVQISTPSYSIPEASFQDSGEYRCQIGSSMPSDPVQLQIHNDWLLLQASRRVLTEGEPLALRCHGWKNKLVYNVVFYRNGKSFQFSSDSEVAILKTNLSHSGIYHCSGTGRHRYTSAGVSITVKELFTTPVLRASVSSPFPEGSLVTLNCETNLLLQRPGLQLHFSFYVGSKILEYRNTSSEYHIARAEREDAGFYWCEVATEDSSVLKRSPELELQVLGPQSSAP

73‐DY (human), sequence (heavy, as listed by the source, chain 1 of 2): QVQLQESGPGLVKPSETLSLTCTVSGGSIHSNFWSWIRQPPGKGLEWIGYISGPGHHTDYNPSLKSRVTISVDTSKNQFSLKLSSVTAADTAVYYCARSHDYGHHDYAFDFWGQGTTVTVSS
73‐DY (human), sequence (light, as listed by the source, chain 2 of 2): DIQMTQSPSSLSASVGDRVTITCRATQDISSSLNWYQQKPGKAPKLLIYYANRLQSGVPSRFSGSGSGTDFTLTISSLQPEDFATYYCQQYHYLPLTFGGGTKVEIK
hu1‐23 (human), sequence (heavy, as listed by the source, chain 1 of 2): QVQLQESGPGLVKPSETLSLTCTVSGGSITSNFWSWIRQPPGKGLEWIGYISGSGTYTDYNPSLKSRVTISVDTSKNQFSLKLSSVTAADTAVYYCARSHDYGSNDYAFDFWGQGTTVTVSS
hu1‐23 (human), sequence (light, as listed by the source, chain 2 of 2): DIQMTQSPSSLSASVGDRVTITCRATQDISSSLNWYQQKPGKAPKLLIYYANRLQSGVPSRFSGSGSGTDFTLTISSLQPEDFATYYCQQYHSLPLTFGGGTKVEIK

One test has as its target rc.73-DD (mouse). Description: SPR; BIAcore 8K, 25 °C, HBS-EP+; antibodies with mIgG-Fc captured on a CM5 chip with immobilised anti-mouse antibodies; FcγRs injected at 400 to 3.125 nM (1:2 dilutions), 30 µL/min, 90 s association, 120 s dissociation; 1:1 Langmuir model.
B1: the Kd is 2.97 nM.

In turn, B2 showed a Kd of 11.8 nM.

A further test has as its target rc.hu1-23 (mouse). The description is as above.
B1 registered a Kd of 196 nM.

B2 returned a Kd of 2680 nM.

The next test deals with 73 (human). The experiment in a line: SPR; BIAcore 8K, 25 °C, HBS‐EP+ buffer; antibodies with hIgG‐Fc immobilised on a Series S Protein A sensor chip at 300 RU; recombinant mouse FcγRs injected at 400 to 3.125 nM, 30 µL/min, 90 s association, 120 s dissociation; 1:1 Langmuir binding model.
Turning to B3, the dissociation constant (Kd) came to 42.6 nM.

With B4, the Kd amounted to 45.2 nM.

In the case of B1, the Kd is 379 nM.

Another test has as its target 73‐DY (human). The description is as above.
B3: the Kd stood at 54.3 nM.

Turning to B4, the Kd turned out to be 11.1 nM.

As to B1, the Kd was 9.72 nM.

For the molecule B2, the Kd amounted to 12 nM.

Another test addresses hu1‐23 (human). Described as above.
For B3, the Kd was found to be 41.8 nM.

For B4, the Kd turned out to be 54.1 nM.

In the case of B1, the Kd is 300 nM.

For B2, the Kd was 233 nM.
